{"source": "patent US20100175139A1", "about": "“SOMATO[…]” (priority 2007, published 2010)", "molecules": {"B1": {"name": "TGF-β3: TGF-β3 over-expressed from a retroviral/lentiviral vector; cells exposed by transduction or conditioned medium (protein, UniProt P10600 301-412, looked up)", "Transforming growth factor …": "ALDTNYCFRNLEENCCVRPLYIDFRQDLGWKWVHEPKGYYANFCSGPCPYLRSADTTHSTVLGLYNTLNPEASASPCCVPQDLEPLTILYYVGRTPKVEQLSNMVVKSCKCS"}}, "assay_type_in_all_cases": "cell-based", "key": {"[1]": {"system": "SBE4 responsive element (smad2/3 mediated transcriptional activation)", "test": "SBE4 responsive element luciferase reporter in NIH-3T3 cells", "details": "transgenic TGF-β3 over-expression vs control GFP retrovirus, 48 hours", "from_the_text": "(§1) NIH-3T3 cells were transfected with plasmids containing TGF-β responsive elements driving luciferase expression. These cells were then transduced with a retroviral vector expressing TGF-β3. The SBE4 responsive element is specific to TGF-β activation via smad2/3 mediated transcriptional activation. This Smad activation can be further delineated to Smad2 specific transcriptional activation using the ARE responsive element in conjunction with the xenopus Fast-1 transactivator (ARE alone is only Smad2/3 specific). The BMP-specific responsive element activates through Smad1/5/8 activation and should not be responsive to TGF-β3 activity. […] The experiment was conducted as follows:\n(§2) NIH-3T3 cells pre-plated at 1×10^6 cells/well and transfected with 10 μg of reporter plasmid by standard Calcium Phosphate precipitation. After 48 hours cells were transduced with either rKat.TGF-β3 or a control rKat.cmvGFP retrovirus. […] After 48 hours luciferase expression was measured in cell lysates. […] Relative luciferase activity was expressed in arbitrary units with respect to total protein measured by standard Bradford assay as by manufacturer's instructions (BioRad, Herts, UK)."}, "[2]": {"system": "MDF-CAGA(12)-Luc cells (Smad2/3 specific transcriptional activation)", "test": "CAGA(12)-Luc reporter in primary murine dermal fibroblasts", "details": "conditioned medium from TGF-β3 over expressing cells vs GFP control", "description": "A cell line transgenic for a synthetic TGF-β responsive element driving the firefly luciferase gene was generated from primary mouse dermal fibroblasts. The CAGA(12) Smad Binding Element (SBE) was placed upstream of a minimal promoter and will respond to Smad2/3 specific transcriptional activation. Primary murine dermal fibroblasts (MDF) were transduced with a lentiviral vector containing the CAGA(12)-Luc element. These cells were then incubated in conditioned medium from MDFs transduced with a lentivector expressing either TGF-β3 or GFP. The experiment was carried out as follows:\nMurine dermal fibroblasts (MDF) were isolated as previously described by DiPersio et al. (DiPersio, C. M., S. Shah, and R. O. Hynes. 1995. alpha 3A beta 1 integrin localizes to focal contacts in response to diverse extracellular matrix proteins. J Cell Sci 108 (Pt 6):2321-36) and expanded to ˜60% confluence and transduced with a lentivector expressing a luciferase reporter gene under the control of either a smad 2/3-specific CAGA(12) promoter. Lentiviral preps were generated as described in Example 1. […] Relative luciferase activity was expressed in arbitrary units with respect to total protein measured by standard Bradford assay as by manufacturer's instructions (BioRad, Herts, UK)."}, "Smad7 promoter": {"system": "Smad7 promoter", "test": "Smad7 promoter luciferase reporter in NIH-3T3 cells", "details": "TGF-β3 over-expression", "from_the_text": "as §1, §2"}, "[3]": {"system": "ARE responsive element (Smad2/3 specific)", "test": "ARE responsive element luciferase reporter in NIH-3T3 cells", "details": "TGF-β3 over-expression", "from_the_text": "as §1, §2"}, "[4]": {"system": "BMP responsive element BRE (Smad1/5/8)", "test": "BMP responsive element BRE luciferase reporter in NIH-3T3 cells (negative control)", "details": "TGF-β3 over-expression", "from_the_text": "as §1, §2"}, "[5]": {"system": "293T cells transduced with Lenti/CAGA(12)-Luc", "test": "Lenti/CAGA(12)-Luc reporter in 293T cells with or without human αvβ3 integrins", "details": "conditioned medium from cells over-expressing TGF-β3", "from_the_text": "Human embryonic kidney 293T cells stably expressing the human αvβ3 integrins and control 293T cells were transduced with the Lenti/CAGA(12)-Luc vector to generate two transgenic lines. Again, these cells were subjected to conditioned medium from cells either over-expressing TGF-β3 or control cells. In more detail:\nHuman 293T cells stably transfected with αv and β3 integrin (293Tab) along with 293T controls were a kind gift from Dr. John Olsen, UNC, USA. 293T cells and 293Tabs were transduced with Lenti-CAGA(12)-Luc and human DFs were tranduced with lentivirus either expressing human TGF-β3iresGFP, mutant TGF-β3iresGFP or a GFP control. Cells were cultured for a further 48 hours prior to trypsinisation and mixing of 293 cells and transduced DFs in a 1:1 ratio. Cells were incubated for a further 24 hours in serum containing medium then incubated for 48 hours in serum depleted medium supplemented with ITS+1 (Sigma-Aldrich). Cells were subsequently either FACS analysed, to assess the ratio of 293T cells to DFs, or lysed for the purpose of quantifying the luciferase expression."}, "[6]": {"system": "ARE responsive element with xenopus Fast-1 transactivator (Smad2 specific)", "test": "ARE/Fast-1 responsive element luciferase reporter in NIH-3T3 cells", "details": "TGF-β3 over-expression", "from_the_text": "as §1, §2"}}}
{"molecule": "B1", "values": [{"measurement": "upregulation of SBE4 element over controls (luciferase)", "setting": "[1]", "value": "~1000", "unit": "fold"}, {"measurement": "luciferase response compared to control", "setting": "[2]", "value": "significant luciferase response"}, {"measurement": "luciferase response of Smad7 promoter over controls", "setting": "Smad7 promoter", "value": "significant responses over controls"}, {"measurement": "luciferase response of ARE element over controls", "setting": "[3]", "value": "significant responses over controls"}, {"measurement": "luciferase response of BRE element over controls", "setting": "[4]", "value": "did not show a significant response over controls"}, {"measurement": "luciferase output in αvβ3 expressing cell lines compared to control 293T cells", "setting": "[5]", "value": "significantly enhanced"}, {"measurement": "luciferase response of ARE/Fast-1 element over controls", "setting": "[6]", "value": "significant responses over controls"}]}
